Measured values as given in doi:10.1101/2025.03.28.645892 (2025).
Values belong to the binder of their own block, whether it stands above or below them.

What was measured:
[1] = target: T1, Arabidopsis thaliana UFD1B (Arabidopsis thaliana, UniProt Q9SJV0 1-340); assay: MST; pH 6.5; AMPPNP
T1 chain: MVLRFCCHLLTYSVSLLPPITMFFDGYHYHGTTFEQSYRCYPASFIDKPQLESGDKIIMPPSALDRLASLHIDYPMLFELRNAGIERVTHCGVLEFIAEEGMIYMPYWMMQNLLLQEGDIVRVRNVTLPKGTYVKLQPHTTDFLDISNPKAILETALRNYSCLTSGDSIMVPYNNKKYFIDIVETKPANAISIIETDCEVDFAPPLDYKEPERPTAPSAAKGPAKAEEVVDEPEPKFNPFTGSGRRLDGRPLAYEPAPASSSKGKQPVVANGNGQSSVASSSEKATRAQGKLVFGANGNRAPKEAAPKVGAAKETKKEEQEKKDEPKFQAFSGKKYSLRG

[2] = target: T1, Arabidopsis thaliana UFD1B; assay: MST; pH 7.5; AMPPNP
[3] = target: T1, Arabidopsis thaliana UFD1B; assay: ITC; AMPPNP; AtCDC48A saturated with AtNPL4
[4] = target: T1, Arabidopsis thaliana UFD1B; assay: MST; pH 6.5
[5] = target: T1, Arabidopsis thaliana UFD1B; assay: MST; pH 7.5
[6] = target: T2, AtNPL4B F105A (Arabidopsis thaliana, UniProt Q9LYC2 1-413, F105A); assay: ITC; AMPPNP
T2 sequence: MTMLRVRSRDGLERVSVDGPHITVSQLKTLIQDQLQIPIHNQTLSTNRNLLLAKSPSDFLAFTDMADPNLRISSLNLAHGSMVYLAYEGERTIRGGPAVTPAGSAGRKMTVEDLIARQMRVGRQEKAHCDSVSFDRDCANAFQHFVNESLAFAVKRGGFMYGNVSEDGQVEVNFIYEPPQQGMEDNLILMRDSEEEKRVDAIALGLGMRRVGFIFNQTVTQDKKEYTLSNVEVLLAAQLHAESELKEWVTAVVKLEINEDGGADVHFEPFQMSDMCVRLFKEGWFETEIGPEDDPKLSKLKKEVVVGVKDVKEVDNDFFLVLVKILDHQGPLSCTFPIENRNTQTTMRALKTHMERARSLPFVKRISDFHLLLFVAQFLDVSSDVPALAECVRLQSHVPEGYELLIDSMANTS

[7] = target: T3, AtNPL4B UBXL domain (Arabidopsis thaliana, UniProt Q9LYC2 1-89); assay: ITC; AMPPNP
T3 chain: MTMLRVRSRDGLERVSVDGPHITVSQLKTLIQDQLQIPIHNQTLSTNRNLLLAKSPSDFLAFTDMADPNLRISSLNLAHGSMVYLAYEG

Kd [1]: 2.9 µM
Kd [2]: 4.6 µM
Kd [3]: 3.8 µM
B1: AtCDC48A saturated with AtNPL4 (complex)
chain 1: MSTPAESSDSKSKKDFSTAILERKKSPNRLVVDEAINDDNSVVSLHPATMEKLQLFRGDTILIKGKKRKDTVCIALADETCEEPKIRMNKVVRSNLRVRLGDVISVHQCPDVKYGKRVHILPVDDTVEGVTGNLFDAYLKPYFLEAYRPVRKGDLFLVRGGMRSVEFKVIETDPAEYCVVAPDTEIFCEGEPVKREDEERLDDVGYDDVGGVRKQMAQIRELVELPLRHPQLFKSIGVKPPKGILLYGPPGSGKTLIARAVANETGAFFFCINGPEIMSKLAGESESNLRKAFEEAEKNAPSIIFIDEIDSIAPKREKTNGEVERRIVSQLLTLMDGLKSRAHVIVMGATNRPNSIDPALRRFGRFDREIDIGVPDEIGRLEVLRIHTKNMKLAEDVDLERISKDTHGYVGADLAALCTEAALQCIREKMDVIDLEDDSIDAEILNSMAVTNEHFHTALGNSNPSALRETVVEVPNVSWNDIGGLENVKRELQETVQYPVEHPEKFEKFGMSPSKGVLFYGPPGCGKTLLAKAIANECQANFISVKGPELLTMWFGESEANVREIFDKARQSAPCVLFFDELDSIATQRGGGSGGDGGGAADRVLNQLLTEMDGMNAKKTVFIIGATNRPDIIDSALLRPGRLDQLIYIPLPDEDSRLNIFKAALRKSPIAKDVDIGALAKYTQGFSGADITEICQRACKYAIRENIEKDIEKEKRRSENPEAMEEDGVDEVSEIKAAHFEESMKYARRSVSDADIRKYQAFAQTLQQSRGFGSEFRFENSAGSGATTGVADPFATSAAAAGDDDDLYN
chain 2: MMMLRIRSRDGLERVTAEGAHITVSQLKTLIADQLQIPLHKQTLSTNRDLLLAKTPADLLAFTDLTDPNLPLSSLNLGHGSMLYLAYDGERSIPGAPPVTPAGSFGRKMTVDDLIARQMRVTRQETSHCDSVSFDRDAANAFQHYVNESLAFAVKRGGFMYGTVTEEGQVEVDFIYEPPQQGTEANLILMRDADEEKRVDAIAMGLGMRRVGFIFNQTVVQDKTEYTLSNAEVLQAAELHAESELKEWVTAVVKLEVNEDGGADVHFEAFQMSDMCIRLFKEEWFETEIMPDDDPKLSKMKKEVVVGVKDLKEVDNDFFLVLVRILDHQGPLSSTFPIENRSSRATMRALKTHLDRAKSLPLVKKMSDFHLLLFVAQFLDVSSDVPALAECVRLQSPVPEGYALLIESMANTC
modifications: Alexa-488 dye label in the MST experiments only

Kd [4]: 75.4 µM
Kd [5]: 256 µM
B2: Arabidopsis thaliana NPL4 (natural protein)
chain: MMMLRIRSRDGLERVTAEGAHITVSQLKTLIADQLQIPLHKQTLSTNRDLLLAKTPADLLAFTDLTDPNLPLSSLNLGHGSMLYLAYDGERSIPGAPPVTPAGSFGRKMTVDDLIARQMRVTRQETSHCDSVSFDRDAANAFQHYVNESLAFAVKRGGFMYGTVTEEGQVEVDFIYEPPQQGTEANLILMRDADEEKRVDAIAMGLGMRRVGFIFNQTVVQDKTEYTLSNAEVLQAAELHAESELKEWVTAVVKLEVNEDGGADVHFEAFQMSDMCIRLFKEEWFETEIMPDDDPKLSKMKKEVVVGVKDLKEVDNDFFLVLVRILDHQGPLSSTFPIENRSSRATMRALKTHLDRAKSLPLVKKMSDFHLLLFVAQFLDVSSDVPALAECVRLQSPVPEGYALLIESMANTC
modifications: Alexa-488 dye label in the MST experiments only

Kd [6]: 4.6 µM
Kd [7]: 3.2 µM
B3: Arabidopsis thaliana CDC48A (enzyme)
chain: MSTPAESSDSKSKKDFSTAILERKKSPNRLVVDEAINDDNSVVSLHPATMEKLQLFRGDTILIKGKKRKDTVCIALADETCEEPKIRMNKVVRSNLRVRLGDVISVHQCPDVKYGKRVHILPVDDTVEGVTGNLFDAYLKPYFLEAYRPVRKGDLFLVRGGMRSVEFKVIETDPAEYCVVAPDTEIFCEGEPVKREDEERLDDVGYDDVGGVRKQMAQIRELVELPLRHPQLFKSIGVKPPKGILLYGPPGSGKTLIARAVANETGAFFFCINGPEIMSKLAGESESNLRKAFEEAEKNAPSIIFIDEIDSIAPKREKTNGEVERRIVSQLLTLMDGLKSRAHVIVMGATNRPNSIDPALRRFGRFDREIDIGVPDEIGRLEVLRIHTKNMKLAEDVDLERISKDTHGYVGADLAALCTEAALQCIREKMDVIDLEDDSIDAEILNSMAVTNEHFHTALGNSNPSALRETVVEVPNVSWNDIGGLENVKRELQETVQYPVEHPEKFEKFGMSPSKGVLFYGPPGCGKTLLAKAIANECQANFISVKGPELLTMWFGESEANVREIFDKARQSAPCVLFFDELDSIATQRGGGSGGDGGGAADRVLNQLLTEMDGMNAKKTVFIIGATNRPDIIDSALLRPGRLDQLIYIPLPDEDSRLNIFKAALRKSPIAKDVDIGALAKYTQGFSGADITEICQRACKYAIRENIEKDIEKEKRRSENPEAMEEDGVDEVSEIKAAHFEESMKYARRSVSDADIRKYQAFAQTLQQSRGFGSEFRFENSAGSGATTGVADPFATSAAAAGDDDDLYN
